How the values were obtained:
[1] = test system: CC(C)(O/N=C(\C(=O)N[C@@H]1C(=O)N2C(C(=O)[O-])=C(C[n+]3ccccc3)CS[C@H]12)c1csc(N)n1)C(=O)O; experiment: purified protein; conditions: 10 mM HEPES pH 7.5, 150 mM NaCl, 25 °C, standard error in parentheses
[2] = test system: CO/N=C(\C(=O)N[C@@H]1C(=O)N2C(C(=O)O)=C(COC(C)=O)CS[C@H]12)c1csc(N)n1; experiment: purified protein; conditions: 10 mM HEPES pH 7.5, 150 mM NaCl, 25 °C, standard error in parentheses, n = 3

Substance: KPC-2 (Klebsiella pneumoniae)
- Km [1]: 530 (70) μM
- kcat [1]: 1.9 s⁻¹
- kcat/Km [1]: 3500 M⁻¹ s⁻¹
- Km [2]: 200 (29) μM
- kcat [2]: 76 s⁻¹
- kcat/Km [2]: 380000 M⁻¹ s⁻¹
